Source: patent US20120077731A1 (Ablynx, published 2012)

Tests used:
Human soluble IL-6R [1] = molecular target: T1, Human soluble IL-6R (human, UniProt P08887 20-358); experiment: SPR Biacore 3000, IL-6R amine-coupled to CM5
T1 construct: Soluble recombinant form; biotinylated in some assays; also called hIL-6R; human IL-6R
T1 sequence (looked up): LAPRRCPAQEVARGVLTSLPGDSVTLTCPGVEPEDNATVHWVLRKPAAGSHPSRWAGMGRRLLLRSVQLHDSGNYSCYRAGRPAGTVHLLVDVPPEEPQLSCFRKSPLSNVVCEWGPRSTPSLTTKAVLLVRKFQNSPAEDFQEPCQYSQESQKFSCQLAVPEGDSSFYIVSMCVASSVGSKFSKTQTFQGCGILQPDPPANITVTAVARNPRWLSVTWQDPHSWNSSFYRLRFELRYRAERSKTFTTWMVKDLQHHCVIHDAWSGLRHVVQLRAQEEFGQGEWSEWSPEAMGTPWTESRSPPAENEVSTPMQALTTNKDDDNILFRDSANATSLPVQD
Experimental: (§1) Nanobodies were injected at 5 different concentrations between 1 and 50 nM. Flow rate was 45 μl/min in all experiments. Association and dissociation phase were 3 and 10 min, respectively. The chip was regenerated using Glycine/HCl pH 1.5.

Human soluble IL-6R [2] = molecular target: T1, Human soluble IL-6R; experiment: Alphascreen, inhibition of bio-IL-6 binding to IL-6R
Experimental: (§2) Finally streptavidin donor beads were added and after 1 hour incubator the plate was read on the Envision microplate reader.

Human soluble IL-6R [3] = molecular target: T1, Human soluble IL-6R; experiment: inhibition of the IL-6/IL-6R interaction, summary table C-13
Experimental: as §2

Human soluble IL-6R [4] = molecular target: T1, Human soluble IL-6R; experiment: competition for IL-6R, competitor reference Fab, summary table C-13
Human soluble IL-6R [5] = molecular target: T1, Human soluble IL-6R; experiment: Alphascreen, 100 nM Nanobody, 0.4 nM bio-IL-6R; competitor: reference Fab
Human soluble IL-6R [6] = molecular target: T1, Human soluble IL-6R; experiment: summary table C-13 of Nanobody characteristics, Kd on IL-6R; summary table C-13
Mouse IL-6R = molecular target: T2, Mouse IL-6R (mouse, UniProt P22272 20-364, limits assumed); experiment: ELISA: plate coated with 1 µg/ml mouse IL-6R, 500 nM Nanobody, anti-myc + anti-mouse-HRP
T2 construct: also called mouse sIL-6R
T2 sequence (looked up): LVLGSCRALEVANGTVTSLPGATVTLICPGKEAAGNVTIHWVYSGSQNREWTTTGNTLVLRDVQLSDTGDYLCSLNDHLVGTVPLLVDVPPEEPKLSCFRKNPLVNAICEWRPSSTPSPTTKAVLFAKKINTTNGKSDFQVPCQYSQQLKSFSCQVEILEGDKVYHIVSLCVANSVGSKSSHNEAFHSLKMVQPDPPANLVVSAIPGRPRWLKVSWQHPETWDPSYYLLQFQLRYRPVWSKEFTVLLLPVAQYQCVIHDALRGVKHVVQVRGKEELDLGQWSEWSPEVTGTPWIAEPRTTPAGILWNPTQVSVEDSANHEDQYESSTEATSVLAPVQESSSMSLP
Experimental: Detection was performed with anti-myc and anti-mouse-HRP as first and second antibody respectively.

[7] = molecular target: T3, Human membrane IL-6R on cells (human, UniProt P08887 20-468); experiment: cell-based or functional assay
T3 sequence (looked up): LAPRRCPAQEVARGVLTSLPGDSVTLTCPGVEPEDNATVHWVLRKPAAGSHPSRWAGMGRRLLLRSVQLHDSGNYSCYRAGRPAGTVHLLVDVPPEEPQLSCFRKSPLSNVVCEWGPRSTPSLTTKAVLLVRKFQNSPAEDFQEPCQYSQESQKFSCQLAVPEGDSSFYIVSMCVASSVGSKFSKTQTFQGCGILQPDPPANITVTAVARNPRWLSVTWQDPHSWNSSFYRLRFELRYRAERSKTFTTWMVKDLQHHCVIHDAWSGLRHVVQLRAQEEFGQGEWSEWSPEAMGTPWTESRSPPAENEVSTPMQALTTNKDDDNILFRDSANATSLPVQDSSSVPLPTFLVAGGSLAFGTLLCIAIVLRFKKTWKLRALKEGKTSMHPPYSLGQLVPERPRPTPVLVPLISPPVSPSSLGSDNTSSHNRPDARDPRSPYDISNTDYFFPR

[8] = molecular target: T3, Human membrane IL-6R on cells; experiment: cell-based or functional assay; remark: listed apart in the source
[9] = molecular target: T3, Human membrane IL-6R on cells; experiment: cell-based or functional assay; remark: listed apart in the source
Human soluble IL-6R [10] = molecular target: T1, Human soluble IL-6R; experiment: Biacore off-rate, periplasmic extract
Human soluble IL-6R [11] = molecular target: T1, Human soluble IL-6R; experiment: summary table C-13 of Nanobody characteristics, Kd on IL-6R
Experimental: as §1

Human soluble IL-6R [12] = molecular target: T1, Human soluble IL-6R; experiment: SPR Biacore 3000, IL-6R amine-coupled to CM5; paired with the second koff of IL6R06 (r17c3)
Experimental: as §1

Human soluble IL-6R [13] = molecular target: T1, Human soluble IL-6R; experiment: SPR Biacore 3000, IL-6R amine-coupled to CM5; first koff listed; a separate determination, not the one behind the Kd
[14] = molecular target: T3, Human membrane IL-6R on cells; experiment: cell-based or functional assay; remark: listed apart in the source
[15] = molecular target: T3, Human membrane IL-6R on cells; experiment: cell-based or functional assay; remark: listed apart in the source
[16] = molecular target: T3, Human membrane IL-6R on cells; experiment: cell-based or functional assay; remark: listed apart in the source
Cyno plasma sIL-6R [17] = molecular target: T4, Cyno plasma sIL-6R (cynomolgus monkey, UniProt A0A2K5WN54 60-396); experiment: plasma potency ELISA, cyno plasma
T4 construct: also called cynomolgus sIL-6R
T4 sequence: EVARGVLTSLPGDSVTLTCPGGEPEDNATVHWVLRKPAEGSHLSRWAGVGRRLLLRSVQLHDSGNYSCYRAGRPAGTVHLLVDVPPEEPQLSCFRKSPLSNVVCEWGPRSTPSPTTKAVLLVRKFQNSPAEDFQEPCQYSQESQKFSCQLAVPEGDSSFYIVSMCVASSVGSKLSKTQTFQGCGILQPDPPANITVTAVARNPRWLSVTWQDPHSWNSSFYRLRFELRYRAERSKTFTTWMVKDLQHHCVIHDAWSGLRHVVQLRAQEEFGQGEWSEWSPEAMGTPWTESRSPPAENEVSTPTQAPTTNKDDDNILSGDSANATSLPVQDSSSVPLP

Human plasma sIL-6R [18] = molecular target: T5, Human plasma sIL-6R (human, UniProt P08887 20-355, limits assumed); experiment: plasma potency ELISA, human plasma
T5 construct: also called plasma-derived human IL-6R
T5 sequence (looked up): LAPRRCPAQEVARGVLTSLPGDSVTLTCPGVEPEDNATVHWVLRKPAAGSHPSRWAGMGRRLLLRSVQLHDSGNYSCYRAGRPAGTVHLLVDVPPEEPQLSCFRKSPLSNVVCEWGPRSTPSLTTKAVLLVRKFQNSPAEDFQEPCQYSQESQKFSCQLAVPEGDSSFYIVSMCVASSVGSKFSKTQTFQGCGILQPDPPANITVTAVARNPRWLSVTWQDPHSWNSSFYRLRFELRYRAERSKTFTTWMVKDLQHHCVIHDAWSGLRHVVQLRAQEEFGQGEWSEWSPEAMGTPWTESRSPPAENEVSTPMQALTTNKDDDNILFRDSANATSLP

Cyno plasma sIL-6R [19] = molecular target: T4, Cyno plasma sIL-6R; experiment: plasma potency ELISA, human against cyno plasma
Human plasma sIL-6R [20] = molecular target: T5, Human plasma sIL-6R; experiment: plasma potency ELISA, human plasma; human plasma
Human plasma sIL-6R [21] = molecular target: T5, Human plasma sIL-6R; experiment: plasma potency ELISA, human plasma, high IL-6 (EC95)
Human plasma sIL-6R [22] = molecular target: T5, Human plasma sIL-6R; experiment: plasma potency ELISA, human plasma, normal IL-6 (EC50)
Human plasma sIL-6R [23] = molecular target: T5, Human plasma sIL-6R; experiment: plasma potency assay, human plasma, 42 nM IL6; blocked ligand IL-6
Experimental: (§3) All 5 affinity matured Nanobodies and the sequence optimized Nanobody were also tested in a plasma potency assay. […] TMB was used as substrate.

Human plasma sIL-6R [24] = molecular target: T5, Human plasma sIL-6R; experiment: plasma potency assay, human plasma, 2.4 nM IL6; blocked ligand IL-6
Experimental: as §3

Cyno plasma sIL-6R [25] = molecular target: T4, Cyno plasma sIL-6R; experiment: plasma potency ELISA, cyno plasma + human IL-6 50 ng/mL; sIL-6R captured on BN-12, bound IL-6 detected; blocked ligand IL-6
Human plasma sIL-6R [26] = molecular target: T5, Human plasma sIL-6R; experiment: plasma potency ELISA, human plasma + human IL-6 50 ng/mL; sIL-6R captured on BN-12, bound IL-6 detected; blocked ligand IL-6

B1: IL6R01 (VHH)
VHH: EVQLVESGGGLVQPGGSLRLSCAASGFPLDYYAIGWFRQAPGKEREGVSCISSSDGSTYYADSVKGRFTISRDNAKNTVYLQMNSLKPEDTAVYYCALVHTTAQATGVPQREYEYEWWGQGTQVTVSS
notes: also called PMP28E11; not shown: C-terminal c-myc and (His)6 tags
With B1 the Kd (Human soluble IL-6R [1]) was 400 pM, the koff (Human soluble IL-6R [1]) was 0.00011 s⁻¹ and the kon (Human soluble IL-6R [1]) was 262000 M⁻¹ s⁻¹. The IC50 (Human soluble IL-6R [2]) was 726 pM, the IC50 (Human soluble IL-6R [3]) was 730 pM and the “Ref Fab competition (%)” value (Human soluble IL-6R [4]) was 49%. For the same binder, the “Residual reference-Fab binding to IL-6R (%)” value (Human soluble IL-6R [5]) was 49%, the Kd (Human soluble IL-6R [6]) was 400 pM and the binding result (Mouse IL-6R) was “no binding (tested: 500 nM)”.

B2: IL6R06 (VHH)
VHH: EVQLVESGGGLVQAGGSLRLSCAASGNIFDDNTMGWTWNRQPPGKQRELVAIIATDGSTNYADSVKGRFTISRDNAKNTVYLQMNSLKPEDTAVYYCNLFSLRLGRDYWGQGTQVTVSS
notes: also called PMP32E2; not shown: C-terminal c-myc and (His)6 tags
With B2 the “IC50 (nM), XG-1 cell proliferation” value [7] was 42.1 nM, the “IC50 (nM), TF1 cell proliferation” value [8] was 138 nM and the “IC50 (nM) XG-1” value [9] was 42.1 nM. The koff (Human soluble IL-6R [10]) was 0.000886 s⁻¹, the koff (Human soluble IL-6R [1]) was 0.00757 s⁻¹ and the IC50 (Human soluble IL-6R [2]) was 1210 pM. For the same binder, the Kd (Human soluble IL-6R [11]) was 7100 pM, the IC50 (Human soluble IL-6R [3]) was 1210 pM and the “Ref Fab competition (%)” value (Human soluble IL-6R [4]) was 36%. For the same binder, the “Residual reference-Fab binding to IL-6R (%)” value (Human soluble IL-6R [5]) was 36%, the Kd (Human soluble IL-6R [12]) was 7100 pM and the kon (Human soluble IL-6R [12]) was 1.07e+06 M⁻¹ s⁻¹. It also gave a koff (Human soluble IL-6R [13]) of 0.000886 s⁻¹.

B3: Reference IgG (antibody, V domains shown)
VH: QVQLQESGPGLVRPSQTLSLTCTVSGYSITSDHAWSWVRQPPGRGLEWIGYISYSGITTYNPSLKSRVTMLRDTSKNQFSLRLSSVTAADTAVYYCARSLARTTAMDYWGQGSLVTVSS
VL: DIQMTQSPSSLSASVGDRVTITCRASQDISSYLNWYQQKPGKAPKLLIYYTSRLHSGVPSRFSGSGSGTDFTFTISSLQPEDIATYYCQQGNTLPYTFGQGTKVEIKR
notes: Full-length human IgG1 produced in CHO cells
For B3, the “IC50 (nM) + HSA, XG-1 proliferation assay” value [14] was 0.47 nM, the “IC50 (nM), TF-1 proliferation at 100 IU/mL IL-6” value [15] was 0.921 nM and the “IC50 (nM), TF-1 proliferation at 5000 IU/mL IL-6” value [16] was 144 nM. For the same binder, the IC50 (Cyno plasma sIL-6R [17]) was 166 pM, the “Ratio (high/low) of IC50” value (Human plasma sIL-6R [18]) was 6.54 and the “Ratio (human/cyno) of IC50” value (Cyno plasma sIL-6R [19]) was 1.55. The IC50 (Human plasma sIL-6R [20]) was 258 pM, the IC50 (Human plasma sIL-6R [21]) was 1690 pM and the IC50 (Human plasma sIL-6R [22]) was 258 pM. For the same binder, the IC50 (Human plasma sIL-6R [23]) was 1700 pM, the IC50 (Human plasma sIL-6R [24]) was 200 pM and the “IC50 (read off the curve)” value (Cyno plasma sIL-6R [25]) was roughly 10 pM. The “IC50 (read off the curve)” value (Human plasma sIL-6R [26]) was roughly 40 pM.
